Source: article doi:10.1101/285569

What was measured:
[1] = target: T1, Pumilio RNA-binding domain (UniProt P25822 1091-1426); assay: EMSA
T1 sequence: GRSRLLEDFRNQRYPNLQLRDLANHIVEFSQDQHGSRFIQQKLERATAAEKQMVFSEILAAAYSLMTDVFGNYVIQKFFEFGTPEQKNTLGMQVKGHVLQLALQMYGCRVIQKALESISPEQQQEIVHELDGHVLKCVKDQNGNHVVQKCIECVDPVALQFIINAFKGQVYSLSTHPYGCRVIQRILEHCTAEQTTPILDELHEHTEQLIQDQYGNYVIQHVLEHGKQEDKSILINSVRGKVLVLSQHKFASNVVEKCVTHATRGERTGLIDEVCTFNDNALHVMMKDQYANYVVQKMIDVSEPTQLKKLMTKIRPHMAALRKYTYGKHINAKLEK

[2] = target: Bruno (UniProt O02374 1-604); assay: EMSA

B1: Scramble RNA (ssRNA)
RNA: UAAUCAAGAUACAUAUAUGC
B1: no binding [1]; no binding [2].
